Assay: yeast display, Sf9 membrane polyspecificity reagent, FACS + sequencing; frameworks hold sequencing errors
Summary of the method: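 Galactose-induced (36–48 hours) yeast carrying a synthetic nanobody display library were exposed to 10% biotinylated, detergent-solubilized Sf9 membrane reagent at 4 °C for 1 hour. FACS followed streptavidin microbead enrichment, using low and high (top ~1%) gates for expression (anti-HA) and reagent binding (streptavidin). Colony PCR, MiSeq 2 × 250 sequencing and CDR-length filtering followed. Labels for polyreactivity reflect the gate of origin.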

Q: Which “polyreactivity (PSR sort gate)” value does the source give for “QVQLVESGGGLVQAGCSLRLSCAASGFTFGSNEMGWYRPAPGKLRELVAAINYSGVRTYYADSVKGRFTISRDKAMNNVYLQMKSLKPEETAVDFCAKTRSKPISFDYWGQGTQVTVSS” here?
A: high polyreactivity

Q: Which “polyreactivity (PSR sort gate)” value does the source give for “QVQLLESGGGLVQAGGSLRLSSMASASILGDRMSWYRQAPGKEHELVATIYDGGISYYADSMKGRFTISRDNAKNTVYLQMNSLRPEDTAVFFCGASFEGYRFHVYCGQGTQVTVSS” here?
A: low polyreactivity

Q: Which “polyreactivity (PSR sort gate)” value does the source give for “QVQLLESGGGLVQAGGILRLSCAASGRIIVYYAMGWYRQAPGKERELVAAITRGGSTKYADSVKGRFTISRDNAKNTVYLQMNSLKPEDTAVYYCATATSRRSGYDYWGQGTQVSVSS” here?
A: high polyreactivity

Q: With “QVQLVESGGGLVQAGGSLRLSCAASGSTFVRNAMGWYRQAPGKERELVAGISTGDNTYYADSVKGRFTISRDNAKNTVYLQMNSLKPEDTAVYYCNADVYTEYDYWGQGTQVTVSS” as the sequence, how does the “polyreactivity (PSR sort gate)” value read?
A: low polyreactivity

Q: For “QVQLVESGGGLVQAGGTLRLSCAASGGIFLYYAMGWYRQAPGKERELVATISSGGSTKYADSVKGRFTISRDNAMNTVYLQMNSLKPEDTAVYYCNKVFPNLYIYVVRGLIEMDYWGQGTQVTVSS”, which “polyreactivity (PSR sort gate)” value is on record?
A: low polyreactivity

Q: For “QVQLVESGGGLVQAGGSLRLSCAASGSTLRRYAMGWYRQAPGKERDLVAAITSRGTDTYYADSVKGRFTISRDNAKNTVYLQMNSLKPEDTAVYYCAASWVAGGHYGYDYWGQGTQVTVSS”, which “polyreactivity (PSR sort gate)” value is on record?
A: high polyreactivity

Q: With “QVQRVESGGGLVQAGGSLRLSCAASGIIFALYAMGWYRQAPGKERELVAAISTSGGRTYYADSVKGRFTISRDNAKNTVYFQMNSLKPEDTAVYYCAAGYPYWYHSRLAFDYWGQGTQVTVSS” as the sequence, how does the “polyreactivity (PSR sort gate)” value read?
A: high polyreactivity

Q: With “QVQLVESGGGLVQAGGSLRLSCAASGSIFDAYAMGWYRQAPGKERELVAAITTGGGSTYYADSVMGRFTISRDNAKNTVYLQMNSLKPEDTAVYYCARDYGKYKGYYWGQGTQVTVSS” as the sequence, how does the “polyreactivity (PSR sort gate)” value read?
A: low polyreactivity

Q: For “QVQLVESGGGLVQAGGSLSLSCAASGSNFYYNVMGWYRQAPGKERELVAAISQSGVRTYYADSVKGRFTISRDNAKNTVYLQMNSLKPEDTAVYYCAAKARRLYASSYDYWGQGTQVTVSS”, which “polyreactivity (PSR sort gate)” value is on record?
A: high polyreactivity

Q: For “QVQLVESGGGLVQAGGSLRLSCAASGFTLWGYAMGWYRQAPGKERELVATISWSGGGTNYADSVKGRFTISRDNAKNTVYLQMNSLKPEDTAVYYCAAGQGSRNQYYYWGQGTQVTVSS”, which “polyreactivity (PSR sort gate)” value is on record?
A: high polyreactivity

Q: For “QLQLVESGGGLVQAGGSLRLSFAAYGRTFTSNAKGWSRPAPGKERELVAGITSSTGNTHYADSVKGRFTSSRDNAKNTVNFQMNSLKPEDTAVFYCAAVYYVRGYWGTYSRWYDYWGQGTQVTVSS”, which “polyreactivity (PSR sort gate)” value is on record?
A: high polyreactivity

Q: With “QVQLVESGGGLVQAGGSLRLSCAASGITFRTNTMGWYRQAPGKERELVAAITRSGVTTYYADSVKGRFTISRDNAKNTVYLQMNSLKPEDTAVYYCAARSTKYLYGYWGQGTQVTVSS” as the sequence, how does the “polyreactivity (PSR sort gate)” value read?
A: high polyreactivity

Q: With “QVQLVESGGGLVQAGGSLRLSCAASGSIFYGYAMGWYRQAPGKERELVAAISRRGGSTYYADSVKGRFTISRDIAKNTVDLQMNSLKPEDTAVYYCAAVGLWYEYYYWGQGTQVTVSS” as the sequence, how does the “polyreactivity (PSR sort gate)” value read?
A: high polyreactivity

Q: For “QVQLVESGGVLVQAGGSLRLICAASVFTFYSYAIGWYRQATGTERELVAGISRSGGSTYYADSVKGRFTISRDNAKNTVYLHMNRLKPEDTAVYYCNVRLRKKIQNSKYDYWGQGTQVSVSS”, which “polyreactivity (PSR sort gate)” value is on record?
A: high polyreactivity

Q: For “QVQLEDSGGGLVQAGGSLRLSCAASGFTFYSNAMGWYRQAPGKERELVAAITRGGGSTYYADSVKGRFTISRDNAKNTVYLQMNSLKPEDTAVYYCAAEMFAPYRSTYDYWGQGTQVTVSS”, which “polyreactivity (PSR sort gate)” value is on record?
A: low polyreactivity

Q: Which “polyreactivity (PSR sort gate)” value does the source give for “QVQLVESGGGLVQGGGSLRLSCAASGRIFLRNAMGSYRQAPGKERELVATITSRGCSTYYADSVKGRFTISRDNAKNTVYLQMNSLKPEDTAVYYCAAYPEYVSGAWYDYWGQGTQVNVSS” here?
A: low polyreactivity

Q: With “QVQLVESGGGLVQAGGSLRLSCAASGITFSGNAMGWYRQAPGKERELVAAITWRGDNTYYADSVKGRFTISRDNAKNTVYLQMNSLKPEDTAVYSCAAKSPLFGLTSYPGPDDSWGQGTQVTVSS” as the sequence, how does the “polyreactivity (PSR sort gate)” value read?
A: low polyreactivity

Q: For “QVQLVESGGGLVQAGGSLRLSSAASGSTFWNNVMGSYRQATGKERELVAAITYSGGITYADSVKGRFTISRDNAKNTVYLEMNSLKPEDTAVYYCAADSKYKYDSWGQGTQVTVSS”, which “polyreactivity (PSR sort gate)” value is on record?
A: low polyreactivity

Q: For “QVQLVESGGGLVQAGGSLRLSCAASGSIFHIYAMGWYRQAPGKERELVAAISSGGRTNYADSVKGRFTISRDNAKNTVYLQMNSLKPEDTAVYYCAADWIYLPTRNYRVRVDYWGQGTQVTVSS”, which “polyreactivity (PSR sort gate)” value is on record?
A: high polyreactivity

Q: For “QVQLVESGGGLVQARGSLRLSCAASGRIFVRKAMGWYRQAPGKERELVASISTSSGSTYYADSVKGRFTISRDNAKNTVYLQMNSLTPEVTAVYYCNAGYHFVHWPHVKHKKFDYWGQGTQVTVSS”, which “polyreactivity (PSR sort gate)” value is on record?
A: low polyreactivity

Q: With “QVQLVESGGGLVQAGGSLRLSCAASGSIFGSYAMGWYRPAPGKERELVAAITRAGSTNYADSVKGRFTISRDNAKNTVYLQMNSLKPEDTAVYYCAVRPGFGRSLWYGYWGQGTQVTVSS” as the sequence, how does the “polyreactivity (PSR sort gate)” value read?
A: low polyreactivity

Q: Which “polyreactivity (PSR sort gate)” value does the source give for “QVQLVESGGGLVQAGGSLRLSCAASGSTFHRNAMGWYRQAPGKERELVAAITSGGSTNYADSVKGRFKISRDNAKNTVYLQMNSLKPEDTAVYYCAADEVWGRDLGEYWGQGTQVTVSS” here?
A: low polyreactivity

Q: With “QVQLVESGGGLVQAGGSLRLSCAASGITFPYYGMGWYRQAPGKERELVAAISRGGRTNYADSVKGRFTISRDNAKNTVYLQMNSLKPEDTAVYYCNTRTWSVFAKSDYWGQGTQVTVSS” as the sequence, how does the “polyreactivity (PSR sort gate)” value read?
A: high polyreactivity

Q: For “QVQLVESGVGLVQAGGILRLSCAASGRIFNGYALGWYRQAPGKERELVAVITWNGGSTYYADSVKGRFTISRDNAKNTVYLQMNSLKPEETAVYYCADRRTGYYGTRDYWGQVTQVTVSS”, which “polyreactivity (PSR sort gate)” value is on record?
A: high polyreactivity

Q: With “QVQLVESGGGLVQAGGSLRLSCAASGRTFWIYAMGWYRQAPGKERELVAAITGSGGSTYYADSVKGRFTISRDNAKNTVYLQMNSLKPEDTAVYYCNARVPDSYKWSAYYSHDYWGQGTQVTVSS” as the sequence, how does the “polyreactivity (PSR sort gate)” value read?
A: low polyreactivity

Q: Which “polyreactivity (PSR sort gate)” value does the source give for “QVQLVESGGGLVQAGGSLRLSCAASGLTFKVYDMGWYRQAPGKERELVAAISWSGGSTYYADSVKGRFTISRDNAKNTVYLQMNSLKPEDTAVYFCAVEPSYYVVFFPYEYWGQGTQVTVSS” here?
A: low polyreactivity

Q: With “QVQRVESGGGLVQAGGSLRLSCAASGRTFRSYAMGWYRQAPGKERQFVAAISRSGASTRYADSVKGRFTISRDNAKNTVYFQMNSLKPEDTAVYYCAAVWPDVRGYDYWGQGTQVTVSS” as the sequence, how does the “polyreactivity (PSR sort gate)” value read?
A: high polyreactivity

Q: For “QVQLVESRGGLVQAGGSLRLSCAASGSTILQYAMGWYRQAPGNERELVAAIRFSTGTTYYADSVKGRFTISRDTANNTVYLQMNSLKPEDTAVYYCAALARTRGRKYGYWGHGTQVTVSS”, which “polyreactivity (PSR sort gate)” value is on record?
A: high polyreactivity

Q: With “QVQLVESGGGLVQAGGSLRLSCADSGFTFFSNAMGWYRQAPGKERELVAAITSSGRSTYADSVKGRYTISRDKAKNTVYLQMNSLKPEDSAVYYCAARRTGYLYRYGYWGQGTQVTVSS” as the sequence, how does the “polyreactivity (PSR sort gate)” value read?
A: low polyreactivity

Q: For “QVQLVESGGGIVQAGGSLRLSCAASGSTLFGDAMGLYRQAPGKERELVAAINRRGSTNYADSVKGRFTISRDNAKNTVYLKMNCLKPEDTAVYYCAAYIYKTYRYYYWGQGTQVTVSS”, which “polyreactivity (PSR sort gate)” value is on record?
A: high polyreactivity

Q: With “QVQLVESGGGLVQAGGSLRLSCAASGIIFGQYAMGGYIQAPGKEREFVSAISRSGGSTNYADSVKGLFTISRDNAKNTVYLQMNSLKPEDTAVYYCNKRARHTGDFVWGHGYWGQGTQVTVSS” as the sequence, how does the “polyreactivity (PSR sort gate)” value read?
A: low polyreactivity

Q: For “QVQLVESGGGLVQAGGSLRLSCAASGLTFKSNAMGWYRPAPGKERELVASISKRGGTTYYADSVKGRFTISRDNAKNTVYLQMNSLKPEDTAVYYCAAQSRATTYSWWTGSDYWGQGTQVTVSS”, which “polyreactivity (PSR sort gate)” value is on record?
A: high polyreactivity

Source: the nanobody polyreactivity screen of Harvey et al. (2022)
